“And” between values parts separate entries of the source, which are not always exact repeats. Equal values may be shown once. Read-outs that look alike come from different tables or passages of the source.
Experiments:
[1] = target: T1, F protein of RS Long strain virus (native form, on virus and infected VERO cells) (Respiratory Syncytial Virus, UniProt P12568 26-574); test: cell-based or functional assay
[2] = target: T1, F protein of RS Long strain virus …; test: cell-based or functional assay; remark: listed apart in the source
[3] = target: T1, F protein of RS Long strain virus …; test: cell-based or functional assay; remark: listed apart in the source
[4] = target: T1, F protein of RS Long strain virus …; test: ELISA on methanol-fixed VERO cells infected with RS Long virus, biotinylated mAb 19B, HRP-streptavidin

T1 sequence (P12568 26-574): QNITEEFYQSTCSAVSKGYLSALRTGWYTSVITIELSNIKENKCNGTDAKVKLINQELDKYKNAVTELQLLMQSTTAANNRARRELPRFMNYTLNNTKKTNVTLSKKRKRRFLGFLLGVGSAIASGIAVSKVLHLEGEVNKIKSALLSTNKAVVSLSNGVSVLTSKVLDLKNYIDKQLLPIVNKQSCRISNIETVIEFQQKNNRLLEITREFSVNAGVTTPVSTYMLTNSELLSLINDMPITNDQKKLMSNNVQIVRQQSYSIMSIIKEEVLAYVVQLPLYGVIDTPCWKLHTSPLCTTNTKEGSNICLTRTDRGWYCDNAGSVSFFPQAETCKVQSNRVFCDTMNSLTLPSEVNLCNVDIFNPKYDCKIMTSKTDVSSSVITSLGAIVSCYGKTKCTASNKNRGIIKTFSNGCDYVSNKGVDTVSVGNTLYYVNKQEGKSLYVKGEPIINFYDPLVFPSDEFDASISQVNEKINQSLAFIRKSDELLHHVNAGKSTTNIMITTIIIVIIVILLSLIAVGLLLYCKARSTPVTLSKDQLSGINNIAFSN

Binder	Fusion-Inhibition EC50 [1]	Fusion-Inhibition Titer EC50 [3] [µg/mL]	also measured
Fab19 (Fab) VH: EVQLLEVESGGGLRPGGSLRLSCAASGTTLSGYTMHWVRQAPGKGLEWVSSITGGSNFINYSDSVKGRFTISRDNAKNSLYLQMNSLTAEDTAVYYCATAPIAPPYFDHWGQGTLVTVSS light: ELTQSPSSLSASVGDRVTITCRATQSVSNFLNWYQQKPGEAPTLLIYDASTSQSGVPSRFSGSGSGMDFSLTISSLQPEDLAMYYCQASINTPLFGGGTRIDMRR	0.22 ug/ml and 4.4 nM		Neutralization EC50 [1]: 0.34 µg/mL
mAb 19A (antibody, human IgG1) VH: EVQLLEVESGGGLRPGGSLRLSCAASGTTLSGYTMHWVRQAPGKGLEWVSSITGGSNFINYSDSVKGRFTISRDNAKNSLYLQMNSLTAEDTAVYYCATAPIAPPYFDHWGQGTLVTVSS light: ELTQSPSSLSASVGDRVTITCRATQSVSNFLNWYQQKPGEAPTLLIYDASTSQSGVPSRFSGSGSGMDFSLTISSLQPEDLAMYYCQASINTPLFGGGTRIDMRR	18.9 nM and 2.8 ug/ml		Neutralization EC50 [1]: 2.2 µg/mL
Fab19A (Fab) VH: EVQLLEVESGGGLRPGGSLRLSCAASGTTLSGYTMHWVRQAPGKGLEWVSSITGGSNFINYSDSVKGRFTISRDNAKNSLYLQMNSLTAEDTAVYYCATAPIAPPYFDHWGQGTLVTVSS light: ELTQSPSSLSASVGDRVTITCRATQSVSNFLNWYQQKPGEAPTLLIYDASTSQSGVPSRFSGSGSGMDFSLTISSLQPEDLAMYYCQASINTPLFGGGTRIDMRR	0.16 ug/ml and 3 nM		
mAb 19B (antibody, human IgG1, N-linked carbohydrate at Asn59 in part of the molecules (glycovariant), Human IgG1, kappa; also called Hu19B; version B) VH: QVQLVVESGGGLRPGGSLRLSCAASGTTLSGYTMHWVRQAPGKGLEWVSSITGGSNFINYSDSVKGRFTISRDNAKNSLYLQMNSLTAEDTAVYYCATAPIAPPYFDHWGQGTLVTVSS light: DIQMTQSPSSLSASVGDRVTITCRATQSVSNFLNWYQQKPGEAPTLLIYDASTSQSGVPSRFSGSGSGMDFSLTISSLQPEDLAMYYCQASINTPLFGGGTRIDMRR	2.3 ug/ml and 15.3 nM	2.5	Fusion-Inhibition Titer EC50 [2]: 2.3 µg/mL; Neutralization EC50 [1]: 1.5 µg/mL; EC50 [4]: 0.034 µg/mL
Fab19B Fraction A (1% glycovariant) (Fab, N-linked carbohydrate at Asn59 in 1% of the preparation) VH: QVQLVVESGGGLRPGGSLRLSCAASGTTLSGYTMHWVRQAPGKGLEWVSSITGGSNFINYSDSVKGRFTISRDNAKNSLYLQMNSLTAEDTAVYYCATAPIAPPYFDHWGQGTLVTVSS light: DIQMNFLNWYQQKPGEAPTLLIYDASTSQSGVPSRFSGSGSGMDFSLTISSLQPEDLAMYYCQASINTPLFGGGTRIDMRR		0.89	
Fab19B Fraction C (99% glycovariant) (Fab, N-linked carbohydrate at Asn59 in 99% of the preparation) VH: QVQLVVESGGGLRPGGSLRLSCAASGTTLSGYTMHWVRQAPGKGLEWVSSITGGSNFINYSDSVKGRFTISRDNAKNSLYLQMNSLTAEDTAVYYCATAPIAPPYFDHWGQGTLVTVSS light: DIQMNFLNWYQQKPGEAPTLLIYDASTSQSGVPSRFSGSGSGMDFSLTISSLQPEDLAMYYCQASINTPLFGGGTRIDMRR		3.7	
mAb 19C (antibody, human IgG1) VH: QVQLVVESGGGLRPGGSLRLSCAASGTTLSGYTMHWVRQAPGKGLEWVSSITGGSNFINYADSVKGRFTISRDNAKNSLYLQMNSLTAEDTAVYYCATAPIAPPYFDHWGQGTLVTVSS light: not shown	2.4 ug/ml and 16 nM		
Fab19B Fraction B (94% glycovariant) (Fab, N-linked carbohydrate at Asn59 in 94% of the preparation) VH: QVQLVVESGGGLRPGGSLRLSCAASGTTLSGYTMHWVRQAPGKGLEWVSSITGGSNFINYSDSVKGRFTISRDNAKNSLYLQMNSLTAEDTAVYYCATAPIAPPYFDHWGQGTLVTVSS light: DIQMNFLNWYQQKPGEAPTLLIYDASTSQSGVPSRFSGSGSGMDFSLTISSLQPEDLAMYYCQASINTPLFGGGTRIDMRR		1.5	
mAb 19D (antibody, human IgG1) VH: QVQLVVESGGGLRPGGSLRLSCAASGTTLSGYTMHWVRQAPGKGLEWVSSITGGSNFIQYSDSVKGRFTISRDNAKNSLYLQMNSLTAEDTAVYYCATAPIAPPYFDHWGQGTLVTVSS light: not shown	2.6 ug/ml and 17.3 nM		
mAb 19B Fraction B (40% glycovariant) (antibody, human IgG1, N-linked carbohydrate at Asn59 in 40% of the preparation) VH: QVQLVVESGGGLRPGGSLRLSCAASGTTLSGYTMHWVRQAPGKGLEWVSSITGGSNFINYSDSVKGRFTISRDNAKNSLYLQMNSLTAEDTAVYYCATAPIAPPYFDHWGQGTLVTVSS light: DIQMNFLNWYQQKPGEAPTLLIYDASTSQSGVPSRFSGSGSGMDFSLTISSLQPEDLAMYYCQASINTPLFGGGTRIDMRR		3.8	
mAb 19B Fraction A (<5% glycovariant) (antibody, human IgG1, N-linked carbohydrate at Asn59 in <5% of the preparation) VH: QVQLVVESGGGLRPGGSLRLSCAASGTTLSGYTMHWVRQAPGKGLEWVSSITGGSNFINYSDSVKGRFTISRDNAKNSLYLQMNSLTAEDTAVYYCATAPIAPPYFDHWGQGTLVTVSS light: DIQMNFLNWYQQKPGEAPTLLIYDASTSQSGVPSRFSGSGSGMDFSLTISSLQPEDLAMYYCQASINTPLFGGGTRIDMRR		1.8	
Fab19B (Fab, N-linked carbohydrate at Asn59 in <10% of the preparation (Table 4)) VH: QVQLVVESGGGLRPGGSLRLSCAASGTTLSGYTMHWVRQAPGKGLEWVSSITGGSNFINYSDSVKGRFTISRDNAKNSLYLQMNSLTAEDTAVYYCATAPIAPPYFDHWGQGTLVTVSS light: DIQMNFLNWYQQKPGEAPTLLIYDASTSQSGVPSRFSGSGSGMDFSLTISSLQPEDLAMYYCQASINTPLFGGGTRIDMRR	0.12 ug/ml and 2.4 nM	0.12	

Reference: patent US20050019758A1 (GlaxoSmithKline, published 2005)
